To fix the notation:
B1: Nb21 (VHH)
VHH: QVQLVESGGGLVQAGGSLRLSCAVSGLGAHRVGWFRRAPGKEREFVAAIGANGGNTNYLDSVKGRFTISRDNAKNTIYLQMNSLKPQDTAVYYCAARDIETAEYTYWGQGTQVTVSS
B2: Nb36 (VHH)
VHH: VQLVESGGGLVQAGGSLTLTCAASGRTFSSETMDMGWFRQAPGKEREFVAADSWNDGSTYYADSVKGRFTISRDSAKNTLYLQMNSLKPEDTAVYYCAAETYSIYEKDDSWGYWGQGTQVTVS
B3: Nb17 (VHH)
VHH: HVQLVESGGGLVQAGGSLRLSCAASGSIFSSNAMSWYRQAPGKQRELVASITSGGNADYADSVKGRFTISRDKNTVYPEMSSLKPADTAVYYCHAVGQEASAYAPRAYWGQGTQVTVSS

For this experiment, the target named is SARS-CoV-2 spike receptor-binding domain (RBD), wild type (SARS-CoV-2, Wuhan-Hu-1 (wild type), UniProt P0DTC2). Briefly: cryo-EM structure.
Regarding B1, the binding result is recorded as “binds”.
Take B2: the binding result was “binds”.
B3: the binding result was “binds”.

(Values after publication PMC7987009 (bioRxiv, 2021).)
